In paper PMC7668044, “Insights into bacterial cell division from a structure of EnvC bound to the FtsX periplasmic domain” (Proceedings of the National Academy of Sciences of the …, 2020):

Target: T1, mature EnvC (murein hydrolase activator), non-tagged, co-expressed for crystallisation (E. coli, UniProt P37690 35-419)
T1 construct: EnvC, E. coli, mature protein
T1 sequence (looked up): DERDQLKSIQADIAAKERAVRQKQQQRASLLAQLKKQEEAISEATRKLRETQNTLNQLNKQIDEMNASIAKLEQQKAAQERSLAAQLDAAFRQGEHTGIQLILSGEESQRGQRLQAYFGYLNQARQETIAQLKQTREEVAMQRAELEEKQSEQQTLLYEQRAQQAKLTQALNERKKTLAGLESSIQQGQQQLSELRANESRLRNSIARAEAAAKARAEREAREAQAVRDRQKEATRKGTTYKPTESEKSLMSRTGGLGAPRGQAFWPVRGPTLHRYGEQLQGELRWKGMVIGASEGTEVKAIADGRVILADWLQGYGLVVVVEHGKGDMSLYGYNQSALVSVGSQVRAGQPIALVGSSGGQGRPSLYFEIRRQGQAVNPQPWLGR
Assay: crystal structure; X-ray, 2.1 Å, space group P2(1)2(1)2(1); His-tagged FtsX periplasmic domain and non-tagged EnvC coexpressed and copurified by Ni-IMAC; molecular replacement
Conditions: both partners purified

B1: FtsX periplasmic domain, histidine-tagged, co-expressed for crystallisation (domain or fragment, E. coli)
chain: QITVYLQKTLDDDAAAGVVAQLQAEQGVEKVNYLSREDALGEFRNWSGFGGALDMLEENPLPAVAVVIPKLDFQGTESLNTLRDRITQINGIDEVRMDDS
notes: FtsX periplasmic domain (between the first and second transmembrane helix), E. coli; The two-hybrid construct of the same domain is residues 110 to 209; also called FtsX I; FtsX II; source: E. coli C43(DE3), coexpressed with non-tagged EnvC from a pETDuet1-based vector, copurified by Ni-IMAC
stoichiometry N: 2 FtsX periplasmic domains per EnvC
